Measurements: publication PMC2802658 (Biochemistry, 2010)
Like-named read-outs stand apart in the source and are kept apart here.

What was measured:
[1] = target: T1, cation-dependent mannose 6-phosphate receptor (sCD-MPR) (Bos taurus, UniProt P11456, N59Q/N85Q/N96Q/N115Q); assay: […]-1H HSQC NMR titration; format: binding
T1 sequence (P11456 29-182 N59Q/N85Q/N96Q/N115Q): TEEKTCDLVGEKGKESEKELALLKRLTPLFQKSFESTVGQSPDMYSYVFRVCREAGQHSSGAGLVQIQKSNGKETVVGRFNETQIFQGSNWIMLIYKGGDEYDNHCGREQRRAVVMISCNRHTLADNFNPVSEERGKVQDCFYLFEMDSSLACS

[2] = target: β-glucuronidase (Homo sapiens) (UniProt P08236); settings: cited from earlier work
[3] = target: β-glucuronidase (Homo sapiens) (UniProt P08236); settings: cited from earlier work; remark: listed apart in the source
[4] = target: β-glucuronidase (Homo sapiens) (UniProt P08236); settings: cited from earlier work; remark: listed apart in the source

Chain of β-glucuronidase (Homo sapiens) (P08236 23-651): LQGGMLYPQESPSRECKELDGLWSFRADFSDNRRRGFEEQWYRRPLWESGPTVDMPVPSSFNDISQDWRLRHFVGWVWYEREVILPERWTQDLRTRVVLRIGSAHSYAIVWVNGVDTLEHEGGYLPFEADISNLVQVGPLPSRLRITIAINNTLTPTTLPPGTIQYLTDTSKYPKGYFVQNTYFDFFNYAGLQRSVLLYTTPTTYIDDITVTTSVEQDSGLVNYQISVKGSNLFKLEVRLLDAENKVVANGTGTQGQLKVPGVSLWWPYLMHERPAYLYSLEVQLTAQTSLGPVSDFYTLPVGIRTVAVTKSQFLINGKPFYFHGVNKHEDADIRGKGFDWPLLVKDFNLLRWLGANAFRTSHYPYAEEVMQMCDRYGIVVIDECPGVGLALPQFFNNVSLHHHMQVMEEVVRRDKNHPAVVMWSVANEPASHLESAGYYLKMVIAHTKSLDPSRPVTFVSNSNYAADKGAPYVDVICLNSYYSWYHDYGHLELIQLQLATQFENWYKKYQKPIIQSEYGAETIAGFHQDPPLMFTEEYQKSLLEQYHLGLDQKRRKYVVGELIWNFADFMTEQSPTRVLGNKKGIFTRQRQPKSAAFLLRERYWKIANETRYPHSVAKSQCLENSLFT

`O=P(O)(O)OC[C@H]1OC(O)[C@@H](O)[C@@H](O)[C@@H]1O` (stereo partly shown) [mannose 6-phosphate] gave a Kd [1] of roughly 1 mM.

For “cation-dependent mannose 6-phosphate receptor (from UniProt P11456)”, the Kd [2] is listed as 0.28 nM.

In the case of “cation-dependent mannose 6-phosphate receptor (sCD-MPR) ECD (from UniProt P11456)”, the Kd [3] is given as 1.4 nM.

For “cation-dependent mannose 6-phosphate receptor (sCD-MPRHis6) ECD (from UniProt P11456)”, the Kd [4] is given as 1.5 nM.
